Measured values reported in patent US20220387586A1 (Hoffmann-La Roche, published 2022).

Key:
biotinylated-Lag3 [1] = target: T1, biotinylated-Lag3 (UniProt P18627 23-450, limits assumed, biotinylated); assay: ELISA, inhibition of biotinylated-Lag3 binding to MHC-II on A375 cells (competitor MHC-II); second of two numbers; second of two series in the cell (the series of '/0.4' and '/1.0')
T1 construct: Probably a human LAG3 ECD construct; also called Lag3 (MHCII/ELISA)
T1 sequence (looked up): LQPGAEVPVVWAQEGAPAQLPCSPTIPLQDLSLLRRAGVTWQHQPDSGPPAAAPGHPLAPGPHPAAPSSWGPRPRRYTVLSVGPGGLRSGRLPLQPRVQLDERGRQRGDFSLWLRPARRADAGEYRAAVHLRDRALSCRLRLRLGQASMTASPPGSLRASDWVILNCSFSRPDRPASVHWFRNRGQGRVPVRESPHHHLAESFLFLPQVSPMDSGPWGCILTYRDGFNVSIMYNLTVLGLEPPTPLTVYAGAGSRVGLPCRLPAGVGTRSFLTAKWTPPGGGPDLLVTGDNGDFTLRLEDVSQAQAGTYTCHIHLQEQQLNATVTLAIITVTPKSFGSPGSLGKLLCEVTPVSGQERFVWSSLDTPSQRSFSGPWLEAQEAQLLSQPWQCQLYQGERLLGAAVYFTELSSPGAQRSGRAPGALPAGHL

[2] = target: T2, human Fc tagged human Lag3 extra cellular domain (human, UniProt P18627 29-450, biotinylated in the epitope binning, the SA CAP SPR and the FACS competition assay); assay: FACS, inhibition of biotinylated Lag3:Fc binding to MHC-II on A375 cells (competitor MHC-II); antibody 10 µg/ml
T2 construct: In-house fusion; also called huLag3-Fc; biotinylated, huFc-tagged huLag3; not shown: human Fc tag
T2 sequence: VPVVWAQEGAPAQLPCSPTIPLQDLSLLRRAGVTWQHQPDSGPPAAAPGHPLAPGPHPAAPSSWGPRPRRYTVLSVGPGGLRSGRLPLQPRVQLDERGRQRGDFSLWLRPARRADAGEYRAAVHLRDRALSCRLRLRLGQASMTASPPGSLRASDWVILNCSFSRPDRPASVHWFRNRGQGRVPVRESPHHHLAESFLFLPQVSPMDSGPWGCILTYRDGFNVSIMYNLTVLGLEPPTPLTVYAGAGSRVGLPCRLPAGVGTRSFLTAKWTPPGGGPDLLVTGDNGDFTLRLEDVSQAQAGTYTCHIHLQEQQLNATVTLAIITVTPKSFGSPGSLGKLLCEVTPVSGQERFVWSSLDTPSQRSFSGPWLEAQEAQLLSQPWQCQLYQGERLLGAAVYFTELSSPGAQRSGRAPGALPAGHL
Experimental: This analysis was studied in a FACS competition experiment: A375 cells (ATCC, #CRL-1619) were cultured for 2-3 passages in EM Eagle's medium supplemented with EBSS (PAN, cat.no. #P04-00509), 10% FBS, 2 mM L-Glutamin, 1×NEAA and 1× Sodium Pyruvate. All antibodies, were diluted in FACS buffer to a final concentration of 20 μg/ml in 25 μl (in 96well U-bottom plates). […] A375 cells were washed with PBS and adjusted to 3×10⁶ cells/ml in PBS. 100 μl were seeded per well in a 96well V-bottom plate. Plates were centrifuged and supernatant was removed. […] After this, cells were washed with 200 μl FACS buffer. […] After staining, cells were again washed and then transferred in 150 μl FACS buffer (PBS/2% FBS) to a U-bottom plate and analyzed on a FACS Canto-II using an HTS module.
All antibodies were used at 10 μg/ml final concentration.

biotinylated-Lag3 [3] = target: T1, biotinylated-Lag3; assay: ELISA, inhibition of biotinylated-Lag3 binding to MHC-II on A375 cells (competitor MHC-II); first of two numbers; first of two series in the cell
[4] = target: T3, LAG3 on cells (recombinant CHO cells expressing Lag3) (human, UniProt P18627 29-525); assay: cell ELISA on recombinant CHO cells expressing Lag3
T3 construct: The cell ELISA paragraphs say only 'Lag3'; also called CHO-LAG3; Lag3 cells
T3 sequence: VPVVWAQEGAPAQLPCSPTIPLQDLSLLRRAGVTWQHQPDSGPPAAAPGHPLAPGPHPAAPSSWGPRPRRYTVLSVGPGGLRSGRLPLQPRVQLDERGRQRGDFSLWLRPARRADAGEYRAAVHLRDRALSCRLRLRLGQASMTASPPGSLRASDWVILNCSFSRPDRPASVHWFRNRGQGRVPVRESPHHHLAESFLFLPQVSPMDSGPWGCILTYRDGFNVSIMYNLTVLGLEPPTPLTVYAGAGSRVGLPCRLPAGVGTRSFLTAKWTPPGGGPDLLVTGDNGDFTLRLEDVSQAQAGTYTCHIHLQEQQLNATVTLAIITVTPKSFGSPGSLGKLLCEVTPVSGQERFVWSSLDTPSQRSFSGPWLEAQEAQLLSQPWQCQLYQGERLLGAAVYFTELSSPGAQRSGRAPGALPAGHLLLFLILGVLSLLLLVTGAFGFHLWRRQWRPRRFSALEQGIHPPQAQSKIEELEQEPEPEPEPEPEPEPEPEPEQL
Experimental: After washing (1×90 μl in PBST) cells were fixed by addition of 30 μl/well glutaraldehyde to a final concentration of 0.05% (Sigma Cat.No: G5882), 10 min at room temperature. After washing (3×90 μl/well with PBST-buffer) 25 μl/well goat anti-Human Ig κ chain antibody-HRP conjugate (Milipore, AP502P) was added in a 1:1000 dilution and incubated at RT for 1 h. After washing (3×90 μl/well with PBST-buffer) 25 μl/well TMB substrate (Roche, 11835033001) was added and incubated for 6-10 min. Measurement took place on a Tecan Safire 2 instrument at 370/492 nm.

cynomolgus LAG3 on cells [5] = target: T4, cynomolgus LAG3 on cells (cynomolgus); assay: flow cytometry on activated cynomolgus PBMC, 10 µg/ml (only 2nd Ab (hu): 7.62)
T4 construct: whole, on cells; also called cyno-LAG-3; cynoLAG3
Experimental: Thus, cynomolgus peripheral blood mononuclear cells (PBMC) were prepared from fresh cynomolgus blood and were then activated by CD3/CD28 pre-treatment (1 μg/ml) for 2-3 days. […] After staining, cells were washed two times with PBS/2% FCS and analyzed on a FACS Fortessa (BD).

cynomolgus LAG3 on cells [6] = target: T4, cynomolgus LAG3 on cells; assay: flow cytometry on HEK293F cells transfected with cyno-LAG-3, antibody 10 µg/ml
Experimental: 1.5×10⁵ cells/well were seeded into 96-well plates. […] HEK cells were incubated with indicated antibodies for 45 min on ice, washed twice with 200 μl ice-cold PBS buffer containing 2% FBS, before secondary antibody (APC-labelled goat anti-human IgG-kappa, Invitrogen, cat.no. #MH10515) was added (1:50 diluted in FACS-Puffer/well) and further incubated for 30 min on ice. Cells were again washed twice with 200 μl ice-cold PBS/2% FBS buffer before samples were finally resuspended in 150 μl FACS buffer and binding was measured on FACS CANTO-II HTS Module.

[7] = target: T3, LAG3 on cells (recombinant CHO cells …); assay: cell-based or functional assay

IC50 (biotinylated-Lag3 [1]): 0.6 nM
% Inhibition [2]: 70%
IC50 (biotinylated-Lag3 [3]): 0.8 nM
CHO-cell ELISA inflexion point [4]: 75 ng/mL
% positive cyno cells (PBLs) after CD3/CD28 activation (cynomolgus LAG3 on cells [5]): 22.1%
% pos. (cynomolgus LAG3 on cells [6]): 41.2%
GeoMean (cynomolgus LAG3 on cells [6]): 3060
EC50 [nM] in Jurkat LAG3 + SED + Raji (NFAT luciferase), 2nd assay [7]: 8.6 nM
B1: Reference LAG3 antibody MDX25F7 (antibody, V domains shown)
VH: QVQLQQWGAGLLKPSETLSLTCAVYGGSFSDYYWNWIRQPPGKGLEWIGEINHNGNTNSNPSLKSRVTLSLDTSKNQFSLKLRSVTAADTAVYYCAFGYSDYEYNWFDPWGQGTLVTVSS
VL: EIVLTQSPATLSLSPGERATLSCRASQSISSYLAWYQQKPGQAPRLLIYDASNRATGIPARFSGSGSGTDFTLTISSLEPEDFAVYYCQQRSNWPLTFGQGTNLEIK
notes: also called MDX-25F7 (25F7); Medarex 25F7
